The supplement of paper PMC10567573

B1: RSPH3 (parent)
chain: FIPAKTGKDVATQILEGELFDFDL
B2: WDR88 (parent)
chain: LLTITKAHSNAISNCCFTFSGHFL
B3: POMT2 (parent)
chain: VKYNSCADRPFSAPWWFWLSLTGV

Variants of: B1
Assay: protein stability index of a GFP-peptide fusion (GPS, HEK-293T) (PSI 1-6); higher = more stable
Conditions: c terminus: a fixed tail appended
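Further: lentivirally expressed fusions sorted by FACS into six bins by GFP to DsRed ratio, PSI derived from sequencing read proportions per bin multiplied by bin number.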

Row | Variant | protein stability index
1 | Q13R | 1.58
2 | Q13N | 1.97
3 | V10S | 1.29
4 | A4I | 1.62
5 | T6Q | 1.64
6 | T6H | 1.82
7 | T6L | 1.87
8 | T6M | 1.59
9 | T12L | 2.18
10 | T12M | 2.18
11 | T12G | 1.7
12 | T12A | 2.18
13 | P3L | 2.71
14 | P3F | 2.2
15 | K8P | 2.15
16 | A11H | 1.8
17 | A11P | 1.78
18 | A11G | 2.04
19 | A11S | 1.87
20 | G7F | 1.45

Row | Variant | protein stability index
21 | G7W | 2.83
22 | G7S | 2.08
23 | I14C | 1.99
24 | I14L | 2.27
25 | L19G | 2.31
26 | L19D | 2.59
27 | L19V | 1.74
28 | L19W | 1.96
29 | L19A | 2.2
30 | E18Y | 1.59
31 | E18G | 1.71
32 | E16D | 1.86
33 | F22I | 1.68
34 | F22E | 3.2
35 | F22K | 2.74
36 | F22P | 1.82
37 | K5Q | 2.21
38 | K5H | 1.92
39 | K5V | 1.72
40 | F20K | 2.08

Row | Variant | protein stability index
41 | F20L | 2.25
42 | F20R | 1.86
43 | F20C | 2.16
44 | F20Q | 2.44
45 | L15Q | 1.96
46 | L15R | 2.75
47 | D9F | 2.59
48 | D9L | 2.77
49 | D9N | 3.27
50 | D9R | 2.06
51 | D9T | 1.77
52 | L24A | 2.67
53 | L24M | 2.23
54 | L24F | 1.95
55 | L24T | 2.39
56 | I2R | 3.72
57 | D21P | 2.47
58 | D21W | 3.1
59 | F1W | 2.66

Variants of: B2
Assay: as above
Conditions: c terminus: a fixed tail appended

Row | Variant | protein stability index
60 | T18V | 3.09
61 | T18G | 3.29
62 | T18S | 2.58
63 | T18D | 2.03
64 | T18K | 2.33
65 | T18Y | 2.76
66 | N10R | 2.99
67 | N10H | 2.75
68 | N10P | 2.89
69 | N10V | 2.49
70 | N10T | 3.75
71 | G21I | 2.97
72 | G21C | 2.31
73 | G21K | 2.77
74 | G21A | 2.88
75 | G21V | 2.89
76 | G21H | 2.53
77 | G21W | 2.94
78 | G21P | 3
79 | G21F | 2.41
80 | G21T | 3.34
81 | S9P | 2.39
82 | S9V | 4.49
83 | S9F | 4.2
84 | S9I | 2.46

Row | Variant | protein stability index
85 | S9Y | 3.69
86 | S9A | 3.55
87 | S9Q | 3.42
88 | F23M | 3.51
89 | F23Y | 2.94
90 | F23I | 2.79
91 | T3F | 3.14
92 | T3P | 2.97
93 | T3L | 2.37
94 | T3Y | 2.92
95 | T3E | 2.47
96 | T3M | 3.13
97 | T3V | 3.68
98 | T3A | 2.93
99 | I4V | 3.9
100 | I4G | 1.9
101 | I4D | 3.07
102 | I4Y | 2.38
103 | A11L | 3.15
104 | A11H | 2.82
105 | A11Q | 3.19
106 | A11E | 3.24
107 | A11S | 3.22
108 | A11C | 1.97
109 | A11M | 2.82

Row | Variant | protein stability index
110 | H8K | 3.13
111 | H8P | 2.35
112 | H8D | 3.88
113 | H8W | 2.17
114 | H8V | 2.58
115 | H8L | 3.6
116 | H8I | 2.57
117 | H8Y | 4.38
118 | H8N | 2.03
119 | H8S | 2.6
120 | C16Y | 2.18
121 | C16K | 2.37
122 | C16L | 3.05
123 | C16M | 3.28
124 | K6E | 2.67
125 | T5M | 3.85
126 | T5K | 2.37
127 | T5H | 2.9
128 | T5A | 3.41
129 | T5Y | 3.34
130 | T5I | 2.02
131 | T5F | 4.83
132 | L1K | 1.85
133 | L1Q | 1.59
134 | L1P | 2.81

Row | Variant | protein stability index
135 | F19H | 3.04
136 | F19Y | 2.82
137 | F19K | 1.82
138 | F19W | 2.32
139 | F19N | 2.33
140 | F17S | 1.37
141 | F17C | 1.84
142 | F17D | 1.92
143 | F17H | 1.42
144 | I12F | 3.3
145 | I12R | 2.74
146 | I12S | 3.14
147 | I12G | 2.96
148 | I12K | 2.4
149 | I12M | 3.38
150 | I12P | 2.55
151 | H22S | 2.34
152 | H22F | 2.02
153 | H22R | 1.27
154 | H22M | 3.59
155 | H22L | 3.61
156 | H22T | 2.83
157 | H22A | 2.56
158 | H22K | 2.06
159 | A7F | 2.86

Row | Variant | protein stability index
160 | A7T | 2.58
161 | A7E | 3.31
162 | A7K | 2.4
163 | C15K | 2.11
164 | C15N | 2.98
165 | C15A | 4.06
166 | C15V | 3.3
167 | C15Q | 3.52
168 | C15G | 2.42
169 | C15E | 2.58
170 | C15L | 2.27
171 | S20I | 2.07
172 | S20P | 2.34
173 | S20R | 3.76
174 | S20A | 1.09
175 | S20K | 2.04
176 | S20Y | 2.36
177 | L2K | 2.85
178 | L2A | 3.15
179 | L2E | 1.57
180 | L2N | 2.82
181 | L2W | 3.22
182 | S13Q | 3.54
183 | S13P | 3.02
184 | S13L | 3.23

Row | Variant | protein stability index
185 | S13V | 2.2
186 | S13N | 2.6
187 | S13D | 2.2
188 | S13M | 3.08
189 | L24T | 2.47
190 | L24W | 1.58
191 | L24Y | 3.97
192 | L24R | 2.28
193 | L24C | 2.68
194 | L24F | 3.56
195 | L24A | 2.74
196 | L24K | 2.93
197 | L24P | 2.46
198 | L24V | 1.91
199 | N14I | 3.89
200 | N14P | 3.55
201 | N14S | 2.39
202 | N14W | 2.37
203 | N14F | 3.06
204 | N14Q | 1.82

Variants of: B3
Assay: as above
Conditions: c terminus: a fixed tail appended

Row | Variant | protein stability index
205 | Y3P | 2.55
206 | Y3D | 2.19
207 | Y3Q | 1.41
208 | Y3K | 2.11
209 | S5P | 2.39
210 | S5A | 4.07
211 | S5D | 4.19
212 | S12I | 3.2
213 | S12A | 3.27
214 | S12F | 2.65
215 | L19T | 1.64
216 | L19F | 2.95
217 | L19E | 1.65
218 | L19I | 1.76
219 | L19N | 2.79
220 | D8S | 2.54
221 | D8P | 3.01
222 | D8R | 3.03
223 | D8T | 3.21
224 | D8L | 3
225 | D8W | 1.26
226 | D8I | 3.67
227 | D8Y | 2.29
228 | D8G | 2.4
229 | W16P | 2.08
230 | W16Q | 1.78

Row | Variant | protein stability index
231 | W16T | 3.23
232 | W16D | 3.79
233 | W16L | 1.8
234 | W16V | 2.01
235 | W16I | 3.2
236 | F11G | 2.84
237 | F11S | 1
238 | A13S | 2.06
239 | A13R | 1
240 | A13G | 2.11
241 | A13H | 1.18
242 | A13E | 2.18
243 | P14A | 2.21
244 | P14V | 2.71
245 | P14R | 3.92
246 | P14Y | 1.21
247 | P14C | 2.27
248 | P14G | 2.4
249 | P14F | 1.35
250 | L21K | 1.12
251 | L21P | 2.68
252 | L21A | 3.62
253 | L21N | 2.88
254 | V24I | 2.98
255 | V24A | 2.85
256 | V24N | 1.81

Row | Variant | protein stability index
257 | V24M | 2.61
258 | V24L | 5.16
259 | V24Y | 2.1
260 | V24R | 1.87
261 | V24E | 1
262 | V24T | 1.5
263 | P10A | 2.24
264 | P10E | 1.63
265 | P10L | 2.5
266 | P10K | 4.18
267 | P10M | 1.94
268 | T22K | 2.12
269 | T22N | 1.29
270 | T22A | 1.62
271 | T22I | 1.56
272 | T22V | 3.31
273 | V1R | 1.98
274 | V1C | 2.99
275 | V1H | 1.1
276 | V1A | 3.3
277 | V1L | 1.66
278 | A7Y | 1.39
279 | N4T | 3.25
280 | N4E | 3.12
281 | N4V | 3.46
282 | W15H | 2.54

Row | Variant | protein stability index
283 | W15E | 3.49
284 | W15K | 3.58
285 | W18C | 2.54
286 | W18V | 2.56
287 | W18A | 2.22
288 | W18G | 3.3
289 | W18S | 3.44
290 | W18Y | 2.04
291 | W18T | 3.52
292 | G23F | 2.65
293 | G23I | 2.22
294 | G23V | 2.98
295 | G23T | 2.04
296 | G23Q | 4.6
297 | G23M | 1.55
298 | G23N | 1.69
299 | G23S | 1.47
300 | G23E | 5.35
301 | G23A | 1.77
302 | G23C | 1.24
303 | G23W | 1.21
304 | R9A | 2.8
305 | R9L | 2
306 | R9I | 3.57
307 | R9F | 3.16
308 | R9G | 3.51

Row | Variant | protein stability index
309 | R9N | 3.39
310 | R9W | 3.34
311 | F17W | 1.33
312 | F17V | 2.16
313 | F17T | 3.3
314 | F17K | 2.65
315 | K2R | 2.2
316 | K2T | 1.61
317 | K2F | 2.75
318 | K2N | 2.4
319 | K2Y | 3.34
320 | C6D | 2.84
321 | C6T | 1.92
322 | C6N | 1.02
323 | C6W | 1
324 | C6L | 2.11
325 | C6G | 1.73
326 | C6I | 2.36
327 | C6S | 2.14
328 | S20F | 1.04
329 | S20Y | 2.25
330 | S20C | 2.22
331 | S20M | 3.17
332 | S20L | 1.47
333 | S20H | 2.9
334 | S20I | 2.08
